Data on one substance can be found in PMC6459815.

The experiment deals with recombinant CD47 (integrin associated protein), K24-S139, GST-fused (human). In words: SPR; Biacore X100; recombinant CD47 immobilised on a CM5 chip (amine coupling), analyte at 0.125, 0.25, 0.5, 1 and 2 uM, single-cycle kinetics, 120 s contact, 180 s dissociation (last cycle 580 s); HBS-EP+ (10 mM HEPES pH 7.4, 150 mM NaCl, 3 mM EDTA, 0.05% P20).

Consider “recombinant PfMSA180-Tr4 (PfMSA180 truncate 4, residues A805-P1093) (domain or fragment)”, for which the Kd was determined as 2.06 nM and the stoichiometry N came to 1.
